Blank lines part the entries; values can stand above or below the substance they belong to.
How the values were obtained:
Test in all cases: cell-based or functional assay
SAPK2a(T106M)(h) (human) = SAPK2a(T106M)(h) (human) (UniProt Q16539)
CHK1(h) (human) = CHK1(h) (human) (UniProt O14757)
MSSK1(h) (human) = MSSK1(h) (human) (UniProt Q9UPE1)
VRK2(h) (human) = VRK2(h) (human) (UniProt Q86Y07)
Met(D1246N)(h) (human) = Met(D1246N)(h) (human) (UniProt P08581)
EphA7(h) (human) = EphA7(h) (human) (UniProt Q15375)
PKCβI(h) (human) = PKCβI(h) (human) (UniProt P05771)
Sequence of PKCβI(h) (human) (P05771 whole entry): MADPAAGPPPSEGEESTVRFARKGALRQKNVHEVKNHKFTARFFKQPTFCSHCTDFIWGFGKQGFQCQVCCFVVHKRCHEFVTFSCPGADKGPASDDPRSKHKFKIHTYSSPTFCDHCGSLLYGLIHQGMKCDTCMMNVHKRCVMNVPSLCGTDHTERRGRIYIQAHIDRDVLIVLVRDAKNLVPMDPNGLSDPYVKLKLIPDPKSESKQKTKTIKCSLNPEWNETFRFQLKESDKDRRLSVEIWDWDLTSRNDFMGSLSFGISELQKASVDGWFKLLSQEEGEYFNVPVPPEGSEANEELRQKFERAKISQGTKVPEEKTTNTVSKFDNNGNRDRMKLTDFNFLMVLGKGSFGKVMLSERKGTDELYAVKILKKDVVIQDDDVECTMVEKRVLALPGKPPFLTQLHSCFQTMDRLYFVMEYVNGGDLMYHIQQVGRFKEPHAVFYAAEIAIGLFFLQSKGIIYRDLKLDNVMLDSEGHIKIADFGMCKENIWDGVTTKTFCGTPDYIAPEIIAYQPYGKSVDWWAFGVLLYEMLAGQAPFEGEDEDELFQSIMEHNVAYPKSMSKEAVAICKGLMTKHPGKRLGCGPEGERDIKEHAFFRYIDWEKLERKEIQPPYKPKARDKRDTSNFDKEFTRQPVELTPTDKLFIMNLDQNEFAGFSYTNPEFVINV

PKBβ(h) (human) = PKBβ(h) (human) (UniProt P31751)
Flt1(h) (human) = Flt1(h) (human) (UniProt P17948)
PAR-1Bα(h) (human) = PAR-1Bα(h) (human) (UniProt Q7KZI7)
PKBγ(h) (human) = PKBγ(h) (human) (UniProt Q9Y243)
FGFR3(h) (human) = FGFR3(h) (human) (UniProt P22607)
Tie2(Y897S)(h) (human) = Tie2(Y897S)(h) (human) (UniProt Q02763)
PAK4(h) (human) = PAK4(h) (human) (UniProt O96013)
EGFR(T790M)(h) (human) = EGFR(T790M)(h) (human) (UniProt P00533)
mTOR(h) (human) = mTOR(h) (human) (UniProt P42345)
Src(T341M)(h) (human) = Src(T341M)(h) (human) (UniProt P12931)
TSSK2(h) (human) = TSSK2(h) (human) (UniProt Q96PF2)
PrKX(h) (human) = PrKX(h) (human) (UniProt P51817)
SRPK2(h) (human) = SRPK2(h) (human) (UniProt P78362)
Tie2(h) (human) = Tie2(h) (human) (UniProt Q02763)
CDK3/cyclinE(h) (human) = CDK3/cyclinE(h) (human) (UniProt Q00526)
Sequence of CDK3/cyclinE(h) (human) (Q00526 whole entry, chain 1 of 2): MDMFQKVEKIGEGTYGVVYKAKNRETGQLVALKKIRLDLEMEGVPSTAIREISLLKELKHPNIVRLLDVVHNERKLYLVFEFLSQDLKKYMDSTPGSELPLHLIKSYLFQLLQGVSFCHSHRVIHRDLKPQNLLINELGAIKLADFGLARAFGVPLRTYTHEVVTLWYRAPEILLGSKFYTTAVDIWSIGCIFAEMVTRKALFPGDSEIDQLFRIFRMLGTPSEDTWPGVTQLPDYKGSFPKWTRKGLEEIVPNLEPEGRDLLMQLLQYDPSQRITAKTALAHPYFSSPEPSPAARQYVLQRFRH
Sequence of CDK3/cyclinE(h) (human) (Q00526 whole entry, chain 2 of 2): as the sequence (Q00526 whole entry, chain 1 of 2) above

GSK3α(h) (human) = GSK3α(h) (human) (UniProt P49840)
PKCζ(h) (human) = PKCζ(h) (human) (UniProt Q05513)
GRK6(h) (human) = GRK6(h) (human) (UniProt P43250)
Bmx(h) (human) = Bmx(h) (human) (UniProt P51813)
KDR(h) (human) = KDR(h) (human) (UniProt P35968)
Sequence of KDR(h) (human) (P35968 790-1356 limits assumed): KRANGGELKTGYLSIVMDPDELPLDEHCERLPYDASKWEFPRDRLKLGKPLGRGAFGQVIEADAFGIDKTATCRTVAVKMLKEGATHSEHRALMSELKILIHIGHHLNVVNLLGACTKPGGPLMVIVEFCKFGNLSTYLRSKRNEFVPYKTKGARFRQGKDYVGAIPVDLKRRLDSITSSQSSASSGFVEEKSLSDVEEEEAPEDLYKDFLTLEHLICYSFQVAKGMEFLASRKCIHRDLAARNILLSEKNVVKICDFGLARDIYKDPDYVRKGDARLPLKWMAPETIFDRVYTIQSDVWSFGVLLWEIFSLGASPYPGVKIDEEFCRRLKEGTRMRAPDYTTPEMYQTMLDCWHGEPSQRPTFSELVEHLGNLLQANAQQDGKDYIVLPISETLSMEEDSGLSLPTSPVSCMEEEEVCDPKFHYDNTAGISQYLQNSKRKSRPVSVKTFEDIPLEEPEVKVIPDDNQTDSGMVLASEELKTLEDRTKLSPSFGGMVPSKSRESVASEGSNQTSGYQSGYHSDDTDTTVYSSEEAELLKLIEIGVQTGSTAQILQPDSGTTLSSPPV

NEK7(h) (human) = NEK7(h) (human) (UniProt Q8TDX7)
ASK1(h) (human) = ASK1(h) (human) (UniProt Q99683)
Sequence of ASK1(h) (human) (Q99683 649-946 limits assumed): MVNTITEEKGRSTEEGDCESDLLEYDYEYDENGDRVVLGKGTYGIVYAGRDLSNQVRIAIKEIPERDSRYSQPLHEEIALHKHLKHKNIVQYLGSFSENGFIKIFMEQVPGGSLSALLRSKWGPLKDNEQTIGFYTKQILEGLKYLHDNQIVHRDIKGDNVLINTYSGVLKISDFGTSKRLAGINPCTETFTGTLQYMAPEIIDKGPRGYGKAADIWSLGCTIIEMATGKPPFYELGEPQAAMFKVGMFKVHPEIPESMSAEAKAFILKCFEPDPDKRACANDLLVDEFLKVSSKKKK

Rsk1(h) (human) = Rsk1(h) (human) (UniProt Q15418)
FGFR2(h) (human) = FGFR2(h) (human) (UniProt P21802)
CaMKIV(h) (human) = CaMKIV(h) (human) (UniProt Q16566)
ALK4(h) (human) = ALK4(h) (human) (UniProt P36896)
PKBα(h) (human) = PKBα(h) (human) (UniProt P31749)
Haspin(h) (human) = Haspin(h) (human) (UniProt Q8TF76)
FAK(h) (human) = FAK(h) (human) (UniProt Q05397)
Aurora-A(h) (human) = Aurora-A(h) (human) (UniProt O14965)
GRK7(h) (human) = GRK7(h) (human) (UniProt Q8WTQ7)
GCK(h) (human) = GCK(h) (human) (UniProt Q12851)
cKit(V654A)(h) (human) = cKit(V654A)(h) (human) (UniProt P10721)
Sequence of cKit(V654A)(h) (human) (P10721 544-976 V654A limits assumed): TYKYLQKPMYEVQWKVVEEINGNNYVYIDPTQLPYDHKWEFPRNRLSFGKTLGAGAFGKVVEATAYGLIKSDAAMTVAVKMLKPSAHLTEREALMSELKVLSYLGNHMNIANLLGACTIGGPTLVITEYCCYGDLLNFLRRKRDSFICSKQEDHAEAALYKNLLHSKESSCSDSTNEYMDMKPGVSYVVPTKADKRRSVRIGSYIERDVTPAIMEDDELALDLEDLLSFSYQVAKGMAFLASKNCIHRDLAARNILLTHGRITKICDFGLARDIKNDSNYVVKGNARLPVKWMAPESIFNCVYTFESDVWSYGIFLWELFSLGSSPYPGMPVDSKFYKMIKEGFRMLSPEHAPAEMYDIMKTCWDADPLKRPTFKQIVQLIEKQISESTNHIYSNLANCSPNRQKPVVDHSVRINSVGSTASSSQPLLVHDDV

cKit(V560G)(h) (human) = cKit(V560G)(h) (human) (UniProt P10721)
Sequence of cKit(V560G)(h) (human) (P10721 544-976 V560G limits assumed): as the sequence (P10721 544-976 V654A limits assumed) above, with V17G, A111V counted along it

MAPK2(h) (human) = MAPK2(h) (human) (UniProt P28482)
EGFR(h) (human) = EGFR(h) (human) (UniProt P00533)
PKG1β(h) (human) = PKG1β(h) (human) (UniProt Q13976)
Pim-1(h) (human) = Pim-1(h) (human) (UniProt P11309)
Sequence of Pim-1(h) (human) (P11309 whole entry): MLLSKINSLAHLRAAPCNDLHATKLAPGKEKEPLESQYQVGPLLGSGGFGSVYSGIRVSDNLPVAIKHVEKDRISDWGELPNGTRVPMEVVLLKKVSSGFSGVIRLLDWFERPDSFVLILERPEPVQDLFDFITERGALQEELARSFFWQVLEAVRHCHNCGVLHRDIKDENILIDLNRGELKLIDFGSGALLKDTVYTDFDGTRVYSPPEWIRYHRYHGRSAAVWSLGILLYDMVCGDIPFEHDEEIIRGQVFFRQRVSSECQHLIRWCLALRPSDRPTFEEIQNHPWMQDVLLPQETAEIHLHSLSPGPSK

Mer(h) (human) = Mer(h) (human) (UniProt Q12866)
TAO3(h) (human) = TAO3(h) (human) (UniProt Q9H2K8)
PRAK(h) (human) = PRAK(h) (human) (UniProt Q8IW41)
ULK2(h) (human) = ULK2(h) (human) (UniProt Q8IYT8)
MSK1(h) (human) = MSK1(h) (human) (UniProt O75582)
PDGFRα(h) (human) = PDGFRα(h) (human) (UniProt P16234)
IKKβ(h) (human) = IKKβ(h) (human) (UniProt O14920)
Sequence of IKKβ(h) (human) (O14920 whole entry): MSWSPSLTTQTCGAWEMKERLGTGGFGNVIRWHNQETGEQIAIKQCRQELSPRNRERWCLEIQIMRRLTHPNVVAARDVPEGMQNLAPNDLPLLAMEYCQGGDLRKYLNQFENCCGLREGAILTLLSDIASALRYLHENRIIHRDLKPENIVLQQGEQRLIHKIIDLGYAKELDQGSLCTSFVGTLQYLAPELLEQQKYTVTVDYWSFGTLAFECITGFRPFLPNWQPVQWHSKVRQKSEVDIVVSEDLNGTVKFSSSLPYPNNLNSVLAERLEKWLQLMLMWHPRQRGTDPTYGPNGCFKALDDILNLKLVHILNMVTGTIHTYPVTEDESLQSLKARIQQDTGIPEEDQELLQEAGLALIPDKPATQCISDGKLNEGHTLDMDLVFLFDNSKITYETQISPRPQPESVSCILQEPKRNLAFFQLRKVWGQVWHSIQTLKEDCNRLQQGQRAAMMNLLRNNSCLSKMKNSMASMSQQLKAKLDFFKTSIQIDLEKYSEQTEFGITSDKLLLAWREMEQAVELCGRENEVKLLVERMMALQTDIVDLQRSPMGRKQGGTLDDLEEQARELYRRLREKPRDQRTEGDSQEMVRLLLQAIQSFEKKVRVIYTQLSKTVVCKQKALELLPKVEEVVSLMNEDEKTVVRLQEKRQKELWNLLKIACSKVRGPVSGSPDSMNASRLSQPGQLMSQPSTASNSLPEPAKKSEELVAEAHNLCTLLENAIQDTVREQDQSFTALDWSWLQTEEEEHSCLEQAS

JNK3(h) (human) = JNK3(h) (human) (UniProt P53779)
Sequence of JNK3(h) (human) (P53779 whole entry): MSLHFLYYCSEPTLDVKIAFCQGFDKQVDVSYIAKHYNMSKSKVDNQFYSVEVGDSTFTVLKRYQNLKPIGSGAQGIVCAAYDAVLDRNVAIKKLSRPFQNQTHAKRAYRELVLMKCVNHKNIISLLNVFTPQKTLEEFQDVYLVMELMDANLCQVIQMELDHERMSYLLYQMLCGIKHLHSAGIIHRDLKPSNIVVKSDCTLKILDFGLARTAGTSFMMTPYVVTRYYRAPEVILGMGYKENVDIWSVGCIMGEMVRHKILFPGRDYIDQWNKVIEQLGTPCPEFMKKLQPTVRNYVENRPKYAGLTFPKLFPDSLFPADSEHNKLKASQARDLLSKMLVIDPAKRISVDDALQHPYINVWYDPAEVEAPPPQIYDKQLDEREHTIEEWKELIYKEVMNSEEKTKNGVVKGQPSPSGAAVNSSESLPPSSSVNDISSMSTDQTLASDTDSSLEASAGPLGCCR

Itk(h) (human) = Itk(h) (human) (UniProt Q08881)
Sequence of Itk(h) (human) (Q08881 whole entry): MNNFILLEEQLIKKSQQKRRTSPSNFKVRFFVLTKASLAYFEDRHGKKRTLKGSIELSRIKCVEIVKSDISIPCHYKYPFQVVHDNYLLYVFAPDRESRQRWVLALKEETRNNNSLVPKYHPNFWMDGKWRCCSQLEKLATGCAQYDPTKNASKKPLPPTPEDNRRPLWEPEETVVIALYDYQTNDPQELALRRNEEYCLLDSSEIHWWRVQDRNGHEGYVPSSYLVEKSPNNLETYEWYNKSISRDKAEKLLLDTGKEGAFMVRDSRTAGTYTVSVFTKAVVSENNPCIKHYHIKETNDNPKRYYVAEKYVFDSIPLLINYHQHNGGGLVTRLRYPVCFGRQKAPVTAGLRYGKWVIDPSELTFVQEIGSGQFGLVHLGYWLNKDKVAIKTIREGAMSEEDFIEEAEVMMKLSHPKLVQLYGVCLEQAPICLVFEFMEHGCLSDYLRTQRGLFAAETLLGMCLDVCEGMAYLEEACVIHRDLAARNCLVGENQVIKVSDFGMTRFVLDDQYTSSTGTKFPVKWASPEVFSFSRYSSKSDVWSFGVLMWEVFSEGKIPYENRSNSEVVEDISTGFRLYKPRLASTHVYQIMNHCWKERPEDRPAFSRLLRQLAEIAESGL

LIMK1(h) (human) = LIMK1(h) (human) (UniProt P53667)
ULK3(h) (human) = ULK3(h) (human) (UniProt Q6PHR2)

Substance: MMI-0100 (peptide)
% activity (SAPK2a(T106M)(h) (human)): 101%
% activity (CHK1(h) (human)): 97%
% activity (MSSK1(h) (human)): 82%
% activity (VRK2(h) (human)): 112%
% activity (Met(D1246N)(h) (human)): 114%
% activity (EphA7(h) (human)): 193%
% activity (PKCβI(h) (human)): 88%
% activity (PKBβ(h) (human)): 284%
% activity (Flt1(h) (human)): 109%
% activity (PAR-1Bα(h) (human)): 62%
% activity (PKBγ(h) (human)): 105%
% activity (FGFR3(h) (human)): 73%
% activity (Tie2(Y897S)(h) (human)): 99%
% activity (PAK4(h) (human)): 92%
% activity (EGFR(T790M)(h) (human)): 106%
% activity (mTOR(h) (human)): 102%
% activity (Src(T341M)(h) (human)): 98%
% activity (TSSK2(h) (human)): 107%
% activity (PrKX(h) (human)): 84%
% activity (SRPK2(h) (human)): 92%
% activity (Tie2(h) (human)): 28%
% activity (CDK3/cyclinE(h) (human)): 106%
% activity (GSK3α(h) (human)): 183%
% activity (PKCζ(h) (human)): 82%
% activity (GRK6(h) (human)): 131%
% activity (Bmx(h) (human)): 62%
% activity (KDR(h) (human)): 100%
% activity (NEK7(h) (human)): 97%
% activity (ASK1(h) (human)): 100%
% activity (Rsk1(h) (human)): 86%
% activity (FGFR2(h) (human)): 49%
% activity (CaMKIV(h) (human)): 87%
% activity (ALK4(h) (human)): 124%
% activity (PKBα(h) (human)): 140%
% activity (Haspin(h) (human)): 127%
% activity (FAK(h) (human)): 98%
% activity (Aurora-A(h) (human)): 120%
% activity (GRK7(h) (human)): 111%
% activity (GCK(h) (human)): 98%
% activity (cKit(V654A)(h) (human)): 69%
% activity (cKit(V560G)(h) (human)): 94%
% activity (MAPK2(h) (human)): 98%
% activity (EGFR(h) (human)): 95%
% activity (PKG1β(h) (human)): 71%
% activity (Pim-1(h) (human)): 44%
% activity (Mer(h) (human)): 47%
% activity (TAO3(h) (human)): 45%
% activity (PRAK(h) (human)): 159%
% activity (ULK2(h) (human)): 123%
% activity (MSK1(h) (human)): 52%
% activity (PDGFRα(h) (human)): 104%
% activity (IKKβ(h) (human)): 105%
% activity (JNK3(h) (human)): 104%
% activity (Itk(h) (human)): 99%
% activity (LIMK1(h) (human)): 103%
% activity (ULK3(h) (human)): 142%

Substance: MMI-0200 (peptide)
% activity (SAPK2a(T106M)(h) (human)): 100%
% activity (CHK1(h) (human)): 115%
% activity (MSSK1(h) (human)): 100%
% activity (VRK2(h) (human)): 109%
% activity (Met(D1246N)(h) (human)): 149%
% activity (EphA7(h) (human)): 220%
% activity (PKCβI(h) (human)): 98%
% activity (PKBβ(h) (human)): 250%
% activity (Flt1(h) (human)): 96%
% activity (PAR-1Bα(h) (human)): 110%
% activity (PKBγ(h) (human)): 103%
% activity (FGFR3(h) (human)): 208%
% activity (Tie2(Y897S)(h) (human)): 85%
% activity (PAK4(h) (human)): 98%
% activity (EGFR(T790M)(h) (human)): 113%
% activity (mTOR(h) (human)): 110%
% activity (Src(T341M)(h) (human)): 56%
% activity (TSSK2(h) (human)): 91%
% activity (PrKX(h) (human)): 112%
% activity (SRPK2(h) (human)): 100%
% activity (Tie2(h) (human)): 53%
% activity (CDK3/cyclinE(h) (human)): 104%
% activity (GSK3α(h) (human)): 119%
% activity (PKCζ(h) (human)): 98%
% activity (GRK6(h) (human)): 132%
% activity (Bmx(h) (human)): 76%
% activity (KDR(h) (human)): 110%
% activity (NEK7(h) (human)): 96%
% activity (ASK1(h) (human)): 101%
% activity (Rsk1(h) (human)): 102%
% activity (FGFR2(h) (human)): 73%
% activity (CaMKIV(h) (human)): 71%
% activity (ALK4(h) (human)): 152%
% activity (PKBα(h) (human)): 110%
% activity (Haspin(h) (human)): 71%
% activity (FAK(h) (human)): 110%
% activity (Aurora-A(h) (human)): 107%
% activity (GRK7(h) (human)): 124%
% activity (GCK(h) (human)): 99%
% activity (cKit(V654A)(h) (human)): 113%
% activity (cKit(V560G)(h) (human)): 115%
% activity (MAPK2(h) (human)): 105%
% activity (EGFR(h) (human)): 83%
% activity (PKG1β(h) (human)): 57%
% activity (Pim-1(h) (human)): 18%
% activity (Mer(h) (human)): 90%
% activity (TAO3(h) (human)): 102%
% activity (PRAK(h) (human)): 115%
% activity (ULK2(h) (human)): 132%
% activity (MSK1(h) (human)): 50%
% activity (PDGFRα(h) (human)): 108%
% activity (IKKβ(h) (human)): 109%
% activity (JNK3(h) (human)): 90%
% activity (Itk(h) (human)): 98%
% activity (LIMK1(h) (human)): 109%
% activity (ULK3(h) (human)): 164%

% activity (SAPK2a(T106M)(h) (human)): 32%
% activity (CHK1(h) (human)): 65%
% activity (MSSK1(h) (human)): 22%
% activity (VRK2(h) (human)): 169%
% activity (Met(D1246N)(h) (human)): 90%
% activity (EphA7(h) (human)): 189%
% activity (PKCβI(h) (human)): 1%
% activity (PKBβ(h) (human)): 21%
% activity (Flt1(h) (human)): 27%
% activity (PAR-1Bα(h) (human)): 97%
% activity (PKBγ(h) (human)): 20%
% activity (FGFR3(h) (human)): 10%
% activity (Tie2(Y897S)(h) (human)): 80%
% activity (PAK4(h) (human)): 86%
% activity (EGFR(T790M)(h) (human)): 70%
% activity (mTOR(h) (human)): 135%
% activity (Src(T341M)(h) (human)): 59%
% activity (TSSK2(h) (human)): 92%
% activity (PrKX(h) (human)): 57%
% activity (SRPK2(h) (human)): 80%
% activity (Tie2(h) (human)): 22%
% activity (CDK3/cyclinE(h) (human)): 8%
% activity (GSK3α(h) (human)): 175%
% activity (PKCζ(h) (human)): 7%
% activity (GRK6(h) (human)): 174%
% activity (Bmx(h) (human)): 45%
% activity (KDR(h) (human)): 15%
% activity (NEK7(h) (human)): 89%
% activity (ASK1(h) (human)): -4%
% activity (Rsk1(h) (human)): 34%
% activity (FGFR2(h) (human)): 12%
% activity (CaMKIV(h) (human)): -1%
% activity (ALK4(h) (human)): 81%
% activity (PKBα(h) (human)): 30%
% activity (Haspin(h) (human)): 25%
% activity (FAK(h) (human)): 94%
% activity (Aurora-A(h) (human)): 110%
% activity (GRK7(h) (human)): 93%
% activity (GCK(h) (human)): 30%
% activity (cKit(V654A)(h) (human)): 223%
% activity (cKit(V560G)(h) (human)): 198%
% activity (MAPK2(h) (human)): 60%
% activity (EGFR(h) (human)): -1%
% activity (PKG1β(h) (human)): 24%
% activity (Pim-1(h) (human)): 0%
% activity (Mer(h) (human)): 17%
% activity (TAO3(h) (human)): 12%
% activity (PRAK(h) (human)): 95%
% activity (ULK2(h) (human)): 124%
% activity (MSK1(h) (human)): 8%
% activity (PDGFRα(h) (human)): 40%
% activity (IKKβ(h) (human)): 71%
% activity (JNK3(h) (human)): 171%
% activity (Itk(h) (human)): 7%
% activity (LIMK1(h) (human)): 87%
% activity (ULK3(h) (human)): 177%
Substance: MMI-0500 (peptide)
